Test results as given in PMC4097036 (Molecular immunology, 2014).

Columns and labels:
[1] = target: rBla g 1-EC (combined with the scFv for crystallography) (Blattella germanica, UniProt Q9UAM5); assay: SEC
[2] = target: anti-Bla g 1 scFv (chicken); assay: crystal structure
[3] = target: rBla g 1-EC T80A, with GST tag (Blattella germanica, UniProt Q9UAM5, point mutant); assay: ELISA
[4] = target: rBla g 1-EC E200A, with GST tag (Blattella germanica, UniProt Q9UAM5, point mutant); assay: ELISA
[5] = target: rBla g 1-EC D50A, with GST tag (Blattella germanica, UniProt Q9UAM5, point mutant); assay: ELISA
[6] = target: rBla g 1-EC D76A, with GST tag (Blattella germanica, UniProt Q9UAM5, point mutant); assay: ELISA
[7] = target: rBla g 1-EC V83A, with GST tag (Blattella germanica, UniProt Q9UAM5, point mutant); assay: ELISA
[8] = target: rBla g 1-EC Q41A, with GST tag (Blattella germanica, UniProt Q9UAM5, point mutant); assay: ELISA
[9] = target: rBla g 1-EC N104A, with GST tag (Blattella germanica, UniProt Q9UAM5, point mutant); assay: ELISA
[10] = target: rBla g 1-EC E161A, with GST tag (Blattella germanica, Bla g 1.0101, UniProt Q9UAM5, point mutant); assay: ELISA
[11] = target: rBla g 1-EC N193A, with GST tag (Blattella germanica, Bla g 1.0101, UniProt Q9UAM5, point mutant); assay: ELISA
[12] = target: rBla g 1-EC E79A, with GST tag (Blattella germanica, UniProt Q9UAM5, point mutant); assay: ELISA
[13] = target: rBla g 1-EC Q183A, with GST tag (Blattella germanica, Bla g 1.0101, UniProt Q9UAM5, point mutant); assay: ELISA
[14] = target: rBla g 1-EC I53A, with GST tag (Blattella germanica, UniProt Q9UAM5, point mutant); assay: ELISA
[15] = target: rBla g 1-EC H113A, with GST tag (Blattella germanica, UniProt Q9UAM5, point mutant); assay: ELISA
[16] = target: rBla g 1-EC L60A, with GST tag (Blattella germanica, UniProt Q9UAM5, point mutant); assay: ELISA
[17] = target: rBla g 1-EC N93A, with GST tag (Blattella germanica, UniProt Q9UAM5, point mutant); assay: ELISA
[18] = target: rBla g 1-EC D107A, with GST tag (Blattella germanica, UniProt Q9UAM5, point mutant); assay: ELISA
[19] = target: rBla g 1-EC N96A, with GST tag (Blattella germanica, UniProt Q9UAM5, point mutant); assay: ELISA

stoichiometry N [1]: 1 Bla g 1 per scFv (printed as 2:2)
stoichiometry N [2]: 2
ΔΔG against wild type (RT ln(IC50 WT/IC50 mutant)) [3]: -1.7 kCal/mol
ΔΔG against wild type (RT ln(IC50 WT/IC50 mutant)) [4]: -0.02 kCal/mol
ΔΔG against wild type (RT ln(IC50 WT/IC50 mutant)) [5]: 0.06 kCal/mol
ΔΔG against wild type (RT ln(IC50 WT/IC50 mutant)) [6]: -1.1 kCal/mol
ΔΔG against wild type (RT ln(IC50 WT/IC50 mutant)) [7]: -0.33 kCal/mol
ΔΔG against wild type (RT ln(IC50 WT/IC50 mutant)) [8]: -0.05 kCal/mol
ΔΔG against wild type (RT ln(IC50 WT/IC50 mutant)) [9]: 0.4 kCal/mol
ΔΔG against wild type (RT ln(IC50 WT/IC50 mutant)) [10]: 0.33 kCal/mol
ΔΔG against wild type (RT ln(IC50 WT/IC50 mutant)) [11]: -2.1 kCal/mol
ΔΔG against wild type (RT ln(IC50 WT/IC50 mutant)) [12]: -1.2 kCal/mol
ΔΔG against wild type (RT ln(IC50 WT/IC50 mutant)) [13]: 0.33 kCal/mol
ΔΔG against wild type (RT ln(IC50 WT/IC50 mutant)) [14]: 0.09 kCal/mol
ΔΔG against wild type (RT ln(IC50 WT/IC50 mutant)) [15]: 0.09 kCal/mol
ΔΔG against wild type (RT ln(IC50 WT/IC50 mutant)) [16]: 0 kCal/mol
ΔΔG against wild type (RT ln(IC50 WT/IC50 mutant)) [17]: 0.31 kCal/mol
ΔΔG against wild type (RT ln(IC50 WT/IC50 mutant)) [18]: 0.13 kCal/mol
ΔΔG against wild type (RT ln(IC50 WT/IC50 mutant)) [19]: 0.33 kCal/mol
B1: anti-Bla g 1 scFv (scFv, V domains shown)
VH: AVTLDESGGGLQTPGGALSLVCKASGFTFSVYDMMWVRQAPSKGLEWVAGIGITGSTYYASAVKGRATISRDNGQSTVRLQLNNLRAEDTGTYYCARGGAYSINKLDTWGQGTEVIVSS
VL: QAALTQPSSVSANPGETVKITCSGGGSSSNYGWFQQKSPGSAPVTVIYNNNNRPSDIPSRFSGSKSGSTATLTITGVQADDEAVYFCGGRDSTYAGMFGAGTTLTVL
